These results are taken from patent US20220195043A1 (BEIJING MABWORKS BIOTECH, published 2022).

Test [1] has as its target T1, human CD3ε-his (Cat #:10977-H08s, SinoBiological, China) (human, UniProt P07766 23-126).
T1 construct: Bought protein; also called human CD3ε protein; recombinant human CD3ε; not shown: his tag
Briefly: SPR (BIAcore 8K); human CD3ε-his coupled to CM5 chip, antibody injected. A general note: Surface plasmon resonance follows binding to a sensor surface in real time, without labels.

The target in test [2] is T1, human CD3ε-his (Cat #:10977-H08s, …). Briefly: ELISA: plate coated with human CD3ε-his, antibody titrated, HRP goat anti-human IgG, OD450. On the technique in general: ELISA stands for enzyme-linked immunosorbent assay.
For test [3], the target named is T2, monkey CD3ε-his (Cat #: 90047-C08H, SinoBiological, China) (monkey, UniProt Q95LI5 22-117).
T2 construct: Bought protein; also called monkey CD3ε protein; recombinant monkey CD3ε
T2 sequence: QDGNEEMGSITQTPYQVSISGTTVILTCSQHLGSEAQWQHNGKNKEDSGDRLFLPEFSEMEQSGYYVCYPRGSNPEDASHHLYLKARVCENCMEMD
Briefly: ELISA: plate coated with monkey CD3ε-his, antibody titrated, HRP goat anti-human IgG, OD 450.

In test [4] the target is T1, human CD3ε-his (Cat #:10977-H08s, …). Briefly: ELISA: plate coated with human CD3ε-his, antibody titrated, HRP goat anti-human IgG, OD 450.
The target of test [5] is T2, monkey CD3ε-his (Cat #: 90047-C08H, …). Briefly: ELISA: plate coated with monkey CD3ε-his, antibody titrated, HRP goat anti-human IgG, OD450.
Test [6] deals with T3, human TCR/CD3 complex on cell surfaces (primary human CD4+ T cells; Jurkat cells; human PBMCs) (human, UniProt P07766 23-207).
T3 construct: whole, on cells; Native complex on cells; the γ, δ, ζ and TCR chains of the complex are present on the cells too; also called human CD3 complexes on cell surfaces; human CD3+ T cells
Briefly: FACS on primary human T cells, PE goat anti-human IgG, MFI.

Test [7] has as its target T2, monkey CD3ε-his (Cat #: 90047-C08H, …). Briefly: ELISA: plate coated with monkey CD3ε-his, antibody titrated, HRP goat anti-human IgG, OD 450. This is another data set of the same source.
Test [8] deals with T1, human CD3ε-his (Cat #:10977-H08s, …). Briefly: ELISA: plate coated with human CD3ε-his, antibody titrated, HRP goat anti-human IgG, OD 450. The source holds these as a separate data set.
In test [9] the target is T3, human TCR/CD3 complex on cell surfaces …. Briefly: FACS on primary human T cells, PE goat anti-human IgG, MFI. This is another data set of the same source.
The target is the same in test [10]. Described as above. This is another data set of the same source.

Changes are numbered by the printed parent chain. Like-named read-outs stand apart in the source and are kept apart here.

T1 sequence (P07766 23-126 limits assumed): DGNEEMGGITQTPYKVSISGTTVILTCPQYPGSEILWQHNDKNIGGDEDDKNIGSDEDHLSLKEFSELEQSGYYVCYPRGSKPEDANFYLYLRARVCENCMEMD
T3 sequence (P07766 23-207, one chain of several): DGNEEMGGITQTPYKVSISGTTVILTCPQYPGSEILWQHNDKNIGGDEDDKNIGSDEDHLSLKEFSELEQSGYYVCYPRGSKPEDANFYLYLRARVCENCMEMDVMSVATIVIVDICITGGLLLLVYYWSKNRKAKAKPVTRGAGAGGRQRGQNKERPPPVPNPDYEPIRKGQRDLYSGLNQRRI

B1: mAB2 (anti-CD3 antibody of Macrogenics, positive control) (antibody, V domains shown)
VH: EVQLVESGGGLVQPGGSLKLSCAASGFTFNTYAMNWVRQAPGKGLEWVARIRSKYNNYATYYADSVKDRFTISRDDSKNTAYLQMNSLKTEDTAVYYCVRHGNFGDSYVSWFAYWGQGTLVTVSS
VL: QTVVTQEPSLTVSPGGTVTLTCRSSTGAVTTSNYANWVQQKPGQAPRGLIGGTNKRAPGTPARFSGSLLGGKAALTLSGVQPEDEAEYYCALWYSNLWVFGGGTKLTVL
In general, Kd refers to the constant that tells how readily two partners part at equilibrium. Molecule B1 had a Kd in test [1] of 0.154 nM.

B2: chimeric antibody 19-15 (full length, human IgG1) (antibody, V domains shown)
VH: EVKLLESGGGLVQPKGSLKLSCAASGFTFNTYAMNWVRQAPGKGLEWVARIRSKYNNYATYYAISVKDRFTISRDDSQSILYLQMNNLKTEDTAMYYCVRHGNFGNSYLSYWAYWGQGTLVTVSA
VL: QAVVTQESALTTSPGETVTLTCQSSTGAVTTNNYANWVQEKPDHLFTGLIGGTKQRAPGVPARFSGSLIGDKAALTITGAQTEDEAIYFCVLWYSNLWVFGGGTKLTVLG
By EC50 (read off the curve) is commonly meant the concentration giving half of the maximal effect. By kon is commonly meant the second-order rate constant of association. As for B2, the “EC50 (read off the curve)” value was about 60 µg/mL in test [2]; about 0.04 µg/mL in test [3]; about 0.05 µg/mL in [4]; about 60 µg/mL in test [5]; about 200 µg/mL in [6]. The molecule also came in with a kon in test [1] of 229000 M⁻¹ s⁻¹.

B3: humanized anti-CD3 antibody 26H2L3 (human IgG1) (antibody, V domains shown)
VH: B1 VH with V5L, K19R, D76N, A81L, K89R, T90A, R100K, D106N, V109I, F112W
VL: QAVVTQEPSLTVSPGGTVTLTCKSSTGAVTTSNYANWVQQKPGHAFRGLIGGTNLHAPGVPARFSGSLLGGKAALTLSGVQPEDEAEYYCALWYSNLWVFGGGTKLTVLG
With B3, the “EC50 (read off the curve)” value in test [7], in test [8] and in test [9] was about 0.1 µg/mL in each case.

B4: humanized anti-CD3 antibody 15H3L3 (human IgG1, light constant region SEQ ID NO: 23) (antibody)
heavy: not shown
light: QAVVTQEPSLTVSPGGTVTLTCQSSTGAVTTNNYANWVQQKPGHAFRGLIGGTKQRAPGVPARFSGSLLGGKAALTLSGVQPEDEAEYYCVLWYSNLWVFGGGTKLTVLGQPKAAPSVTLFPPSSEELQANKATLVCLISDFYPGAVTVAWKADSSPVKAGVETTTPSKQSNNKYAASSYLSLTPEQWKSHRSYSCQVTHEGSTVEKTVAPTECS
Turning to B4, the “EC50 (read off the curve)” value in [2] is about 300 µg/mL; in test [10] it was about 0.2 µg/mL; in [5] it was about 300 µg/mL.

B5: chimeric antibody 19-26 (full length, human IgG1) (antibody, V domains shown)
VH: B2 VH with I64D, L109I, Y111W
VL: B2 VL with Q23K, N32S, K54N, Q55L, R56H, V91A
Consider B5, for which the “EC50 (read off the curve)” value in [7] was about 0.1 µg/mL; in [8], about 0.1 µg/mL; in test [4], about 0.05 µg/mL; in test [9], about 0.2 µg/mL; in test [6], about 700 µg/mL.

B6: humanized anti-CD3 antibody 15H3L2 (human IgG1) (antibody, V domains shown)
VH: B2 VH with K3Q, K15G, K19R, Q78K, S79N, I80T, N87S, K89R, T90A, A125S
VL: QTVVTQEPSLTVSPGGTVTLTCQSSTGAVTTNNYANWVQQKPGQAPRALIGGTKQRAPGTPARFSGSLLGGKAALTLSGVQPEDEAEYYCVLWYSNLWVFGGGTKLTVLG
B6: the “EC50 (read off the curve)” value in [2] was about 100 µg/mL; in test [10], about 0.2 µg/mL; in test [5], about 100 µg/mL.
